This is an account of results in patent US6323311A, “Synthesis of insulin derivatives” (University of Utah Research Foundation, priority 1999, dated 2001).

Where two headings read alike, the source gives them in different places.

For series [1], the system named is male Sprague-Dawley rats. Nature of the series: Biological activity of mCE-PEG insulin conjugates, blood glucose depression in rat after i.v. injection. Type of series: in vivo. Conditions: from blood glucose AUC vs unmodified human insulin, fresh solution in PBS 20 μg/ml.
Experimental: The biological activity of mCE-PEG-substituted insulin conjugates was tested in a rat model (male Sprague-Dawley rats, 250±50 g) by measuring blood glucose depression levels. The animals were fasted overnight (16 hours) prior to the experiment. In the morning, the rats were anesthetized with intraperitoneally administered sodium pentobarbital. Each animal received an i.v. injection (tail vein) of the particular insulin derivative (20 μg/ml NS/kg). Blood samples were taken from the jugular vein 15 and 5 minutes before injection and 15, 30, 60, 90, 120, 180, and 240 minutes after injection. Blood glucose levels were measured with an Accucheck III blood glucose monitor (Boehringer Mannheim). Bioactivities of insulin derivatives were calculated from AUC (area under curve) values, and the AUC value for the same dose of unmodified human insulin.
A short description of series [2]: Accelerated shaking test, physical stability of mCE-PEG insulin conjugates (fibril formation/precipitation). The format is physicochemical. Conditions: 87 μM, 37° C., shaker 100 strokes/min, n=14 vials. How it is done:
The long term physical stability of PEG-insulin derivatives was examined by their tendency to form fibrils in the accelerated shaking test at a concentration of 87 μM. Aggregation was evaluated in 5 ml borosilicate glass vials (1.2 ml filling volume) at 37° C., in a shaker at 100 strokes/min. Individual vials (n=14) were withdrawn at determined times, and the remaining soluble fraction of particular PEG-insulin derivatives was determined after filtration (PVDF membrane, 0.22 μm) using UV spectroscopy and/or HPLC. In parallel, vials were checked visually on a daily basis for the presence of turbidity and/or a precipitate, which was an independent indication that physical aggregation had occurred.

The subject of series [3] is Inbred A/J and C57BL/10ScSn mice. The note with it: intraperitoneal, 3 x 5 μg. As for the experimental part:
Inbred A/J and C57BL/10ScSn mice, 12 weeks old, were used throughout the experiments. Mice (10 per experimental group) were immunized intraperitoneally with 5 μg samples on day 0. Samples were injected either in soluble form (dissolved in PBS, pH 7.4) or as a precipitate (alum precipitate). After 3 weeks, the mice were given a secondary injection, and after another 3 weeks, a third injection. Eight days after the last immunization, the mice were exsanguinated and the serum was separated and stored at -80° C. The specific antibody level in the serum was determined by an ELISA indirect method as described in 44 J. Clin. Lab. Immunol. 191-241 (1994).

Where [4] appears, read: strain A/J, Soluble formulation.
The mark [5] stands for this setting: strain B10, Soluble formulation.

Take “GlyA1-LysB29-di-mCE-PEG insulin [A1-B29-(PEG600)2 Insulin]”: in series [1], the “Biological Activity ± S.D.” value was 19.1 ± 3.6 IU/mg. Besides, in series [2], the “Days to Precipitation ± S.D.” value turned out to be 8.4 ± 1.3 days.
Consider “GlyA1-LysB29-di-mCE-PEG insulin [A1-B29-(PEG2000)2 Insulin]”, for which the “Biological Activity ± S.D.” value in series [1] is 10.6 ± 2.1 IU/mg.
Consider “GlyA1-PheB1-LysB29-tri-mCE-PEG insulin [A1-B1-B29-(PEG600)3 Insulin]”, for which the “Biological Activity ± S.D.” value in series [1] was 5.3 ± 1.1 IU/mg. The “Days to Precipitation ± S.D.” value in series [2] amounted to 35.9 ± 5.3 days. Also, the “Antibody Titres” value in series [3] (strain A/J, Alum ppt.) is 0 log2 of serum dilution; in series [3] (setting [4]) it was 0 log2 of serum dilution; in series [3] (strain B10, Alum ppt.), 0 log2 of serum dilution; in series [3] (setting [5]), 0 log2 of serum dilution.
“GlyA1-PheB1-di-mCE-PEG insulin [A1-B1-(PEG600)2 Insulin]”: the “Biological Activity ± S.D.” value in series [1] is given as 16.2 ± 3.2 IU/mg. Besides, in series [2], the “Days to Precipitation ± S.D.” value was 26.4 ± 4.6 days.
“GlyA1-PheB1-di-mCE-PEG insulin [A1-B1-(PEG2000)2 Insulin]”: the “Days to Precipitation ± S.D.” value in series [2] was 19.3 ± 2.3 days.
For the substance “GlyA1-mCE-PEG insulin [A1-PEG600 Insulin]”, in series [1], the “Biological Activity ± S.D.” value was 22.2 ± 4.2 IU/mg.
The same measure, in the same setting: then “GlyA1-mCE-PEG insulin [A1-PEG2000 Insulin]”, with 15.7 ± 3.1 IU/mg.
With “PheB1-mCE-PEG insulin [B1-PEG600 Insulin]”, in series [1], the “Biological Activity ± S.D.” value came out at 22.8 ± 4.2 IU/mg. The “Days to Precipitation ± S.D.” value in series [2] worked out at 22.0 ± 4.6 days. In addition, the “Antibody Titres” value in series [3] (strain A/J, Alum ppt.) is recorded as 6.1 log2 of serum dilution; in series [3] (setting [4]), 0 log2 of serum dilution; in series [3] (strain B10, Alum ppt.) it was 9.5 log2 of serum dilution; in series [3] (setting [5]) it was 0 log2 of serum dilution.
“PheB1-mCE-PEG insulin [B1-PEG2000 Insulin]”: the “Biological Activity ± S.D.” value in series [1] is given as 15.4 ± 2.6 IU/mg. Further, the “Antibody Titres” value in series [3] (strain A/J, Alum ppt.) is reported as 0 log2 of serum dilution; in series [3] (setting [4]) it was 0 log2 of serum dilution; in series [3] (strain B10, Alum ppt.), 0 log2 of serum dilution; in series [3] (setting [5]), 0 log2 of serum dilution.
